From patent US9046519

What was measured:
[1] = biological target: TSHR Arg255 to Asp (human) (UniProt P16473); test: cell-based or functional assay
[2] = biological target: human thyrotropin receptor (TSHR), wild type, full length (human) (UniProt P16473); test: cell-based or functional assay

hMAb TSHR1 IgG (antibody)
Cyclic AMP produced (fmol/cell well), hMAb TSHR1 IgG 1 ng/mL (fmol/cell well) [1]: 940
Cyclic AMP produced (fmol/cell well), hMAb TSHR1 IgG 10 ng/mL (fmol/cell well) [1]: 3160
Cyclic AMP produced (fmol/cell well), hMAb TSHR1 IgG 100 ng/mL (fmol/cell well) [1]: 5700
Cyclic AMP produced (fmol/cell well), hMAb TSHR1 IgG 1 µg/mL (fmol/cell well) [1]: 5030
Mutated/Wild type (%), hMAb TSHR1 IgG 1 ng/mL [1]: 19%
Mutated/Wild type (%), hMAb TSHR1 IgG 10 ng/mL [1]: 19%
Mutated/Wild type (%), hMAb TSHR1 IgG 100 ng/mL [1]: 37%
Cyclic AMP produced (fmol/cell well), hMAb TSHR1 IgG 1 ng/mL (fmol/cell well) [2]: 4860
Cyclic AMP produced (fmol/cell well), hMAb TSHR1 IgG 10 ng/mL (fmol/cell well) [2]: 16200
Cyclic AMP produced (fmol/cell well), hMAb TSHR1 IgG 100 ng/mL (fmol/cell well) [2]: 15400
Cyclic AMP produced (fmol/cell well), hMAb TSHR1 IgG 1 µg/mL (fmol/cell well) [2]: 16300
